Reference: paper PMC12561426, “Dissecting the Interplay Between NRF2 and BACH1 at CsMBEs”

Experiments:
[1] = target: BACH1DBD (UniProt O14867 511-627); test: EMSA; apparent; homodimer concentration; 150 mM NaCl, 50 mM HEPES pH 7.9, 10% glycerol, 1 mM TCEP, 1 mM DTT, 2 mM MgCl2; 3 nM DNA; TEV and 3C 50 ug/mL each, 4 h 25 °C; competition then O/N 4 °C; gels 4 °C in 1X TBE; settings: protein: recombinant; tags: C-terminal 3C-6xHis; chain copies: 2; label: 5' fluorescein on forward strand; blunt
[2] = target: sMafGDBD (UniProt O15525 1-162); test: EMSA; apparent; homodimer; 150 mM NaCl, 50 mM HEPES pH 7.9, 10% glycerol, 1 mM TCEP, 1 mM DTT, 2 mM MgCl2; 3 nM DNA; TEV and 3C 50 ug/mL each, 4 h 25 °C; competition then O/N 4 °C; gels 4 °C in 1X TBE; settings: protein: recombinant; tags: N-terminal 6xHis-TEV; chain copies: 2; label: 5' fluorescein on forward strand; blunt
[3] = target: T1, NRF2DBD (UniProt Q16236 451-567); test: as above; settings: protein: recombinant; tags: C-terminal 3C-6xHis; chain copies: 2; label: 5' fluorescein on forward strand; blunt
T1 sequence: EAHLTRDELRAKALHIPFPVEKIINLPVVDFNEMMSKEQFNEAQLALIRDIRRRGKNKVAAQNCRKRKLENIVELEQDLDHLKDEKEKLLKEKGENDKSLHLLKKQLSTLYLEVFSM

Chain of BACH1DBD (O14867 511-627): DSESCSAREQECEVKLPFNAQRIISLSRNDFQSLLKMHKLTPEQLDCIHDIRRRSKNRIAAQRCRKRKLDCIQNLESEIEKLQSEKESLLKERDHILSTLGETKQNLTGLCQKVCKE

B1: HMOX1 CsMBE 30-mer (dsDNA)
DNA 1: CTCGGGACCGTGACTCAGCAGGAAAAACAC
DNA 2: GTGTTTTTCCTGCTGAGTCACGGTCCCGAG
[1]
  Kd: ~802 nM
[2]
  Kd: ~203 nM
[3]
  Kd: ~590 nM
